# Data from the DeepSol protein solubility set.
# Assay: soluble on expression in E. coli; label from the status in PepcDB or PDB records
row,Sequence,soluble on expression in E. coli
1,SLQTNKASTGLKTDQSFNNSLSESVKLKEIADIYPTNTNFLTGIGIVAGLAGKGDSIKQKDLIIKILEENNIINEIGSNNIESKNIALVNVSLQVKGNTIKGSKHKACVASILDSKDLTNGILLKTNLKNKEGEIIAIASGITQPNNKLKGSGYTIDSVIINENQNINHSYNIILKKGNYTLINRIHKILTSKKINNKIKSDSTIEIEAKNISLLEEIENIKIETNPKILIDKKNGIILASENAKIGTFTFSIEKDNQNIFLSKNNKTTIQVNSMKLNEFILKNSNNLSNKELIQIIQAAQKINKLNGELILEEIDGNQN,soluble
2,SLRKVGLTALEWLKQHPEIKQHKESSLYEQLFASQQWQQAQTIGMIRSLPLELSTQPIFERAMQESKQVAVPRTFKGGKMHFYQVFPETVYDTSAFGVEEPPLTAAEITATAIDLLIVPGIVFNRAGYRIGFGGGFYDRYLEHFSGHSCSLVFSEQLHEQWQPEAFDQPIEQLFIQ,soluble
3,SLRLKLSLTPKQDFSFDKINKHTIQGFIYSLLKDTEFGEMHNQPRFKFWCFSDIFPPNDFVKGEDKYLLISSPREEFINVLYERLDNLEEVNLNNFKFEVSELKKFDLKVKNKFITGSPIVLYKDKDRGEYIKFYDDDFDLMFFVQRLQDNAVKKYKAFYNEEPVLNGFIFDRISPRVRNGRVDVYVRIAKKGREFLVVGTTWKLLEKIKIRKEERKFYKFIMDCGLGEKNSLGFGFINPIK,not soluble
4,SLRLTQGLFRFPLAGLLCLSTAAFAESQLSVRVTPANAALKANIEAYVGSLGERDEAALQRFRRNAEAQAEKAAQALGYFQAQIDSEVKDGKPPKLTLKVVPGEPVRLRQVNIQVLGEAASLESFRLPSGKQLKPGAKLNQGVYEDAKRLIQNQASRYGFFQGRFSTQRLSIDPRAGIADIDLVYDSGQRYTFGKVSFDGDSIIEEELLRRMVPFKAGQPYDSELIAELNQNLQSSGYFEGVRVDAAPTQAQADGARQAIPVAVRLEARKPRTMGVGLGFSTDVGARARFNWTRHWVNAEGHSLGFESEISAPRQNVGAWYEIPLDPPLTDKLRFTSGYQFEDLVDTESKLLTLGGEWHSKRPDGWQRVVSLNWMREEYKLGDDSGLSSFLMPGIGYSLLETDNKVDPSHGYRLQFNVKGAKEGLLADADVLHVDAMAKGLTSFAGGHRLLGRLQVGGIATNDYKSIPPSLRFFAGGDQSVRGYDYRTLSPENSDGDKIGGRYMIAGSVEYQYPLAERWRLATFVDQGNAFNSLDFPSIKTGVGFGVRWVSPVGPLRLDLAHALDDDGGFRLHFSMGPEL,soluble
5,SLSDTLNSLQLGERPEGRTLLTASWVVGHKDGSHRLLKNGEVVFENGEILFVGHGFPGEVARRIDFGNALVSPGLIDLDALSDLDTTILGIDHHPGWAKGRVWPRSYVEAGPYEMYSAEELAFQKRFAFGQLLLNGITTAAPIASLFYRAWGETVAEFEAAADAAGELGLRVYLSPAFRSGGMVLEEPGRMFPVFDEERGFQGLKEAIAFIEKQSGRHGDLVRGMLAPDRVETSTLGLIERTDAAARELGCKFRLHMAQGVMEVDTVRKLHGSTAPVWLAKAGLLSERLIAPHATNATEEDLALYAENGVSIVHCPLVSSRGGSTLSSFSSCRKRGINIAMGTDTAPADMFMNLLVGLITCRINDGAPDQIRCADLFDAATLGGARALGRSDLGHLSSGARADIAVFDLDDAVMAPSVDPITTLVTGGSGKVTRAVFVDGRLSMRERQVAHIDMRRAREQAQAQFDRLIAKYPERSWANPPVSEIFPPSYQVEVAQHG,not soluble
6,SLSETLYTGISQLATPRPGPQRGAAMGDLHIIEDAALLVRGGVIQWVGPRAAAPTATHVHDLGGRAVVPGLVDPHTHAVWAGDRLSDWEAKLQGATYEEILARGGGIRSTMRATAAADVAELVALARPRLASLRASGATTTEVKSGYGLDFDAELRMLRAVRELQAEFELRPTLLIHVPPQEGRAEYVVGVCAELIPQVAREGLAEALDVFCEKEAFSVEETRTMFAAAQAHGLRVKLHADQFHAIGGTELACEVGALSVDHLEASGAAQIAALAASETVATILPGVTLHLGLPAAPGRQLIDSGAIVAIGTDLNPGSSPLFSTQLALALAVRLCLLTPAEALSACTVNAAYALGLSDRGSLSAGQRADFLVLNGQDWREVAYTLGGNAVAEVYLAGAQL,soluble
7,SLSEVEIEEVRLNPDEPQYTMDGLDGRRFDEQGYLKEHLSSKGAKQFPESSDIHFDSPHLVFFQEGRLLYEVGSDEAVYHTENKQVLFKNNVVLTKTADGKRQAGKVEAEKLHVDTESQYAQTDTPVSFQYGASHGQAGGMTYDHKTGMLNFSSKVKATIYDTKDM,not soluble
8,SLSTLKILLCTDNHLGYKENNSIQKKDSFNSFEEILFIAKKLNVDMILNSGDLFHKNKVSEYTLFKSMYIIRKAGKKLIPFYTIHGNHDYPYSYEYISPLDILNISNLINYIGKNNLNNIVVKPILLNKYKSKISIYAVGWMKDERLYRSFENNEVKFILPSDYKNRINILVLHQNRYIRNAYGNNTKNFIKESFIPKFIDLVIWGHEHFSKPYLEESILNSFYNIQLGSSVRTSICPNEYGDKFIGLLEIKNQRFRFLKINLETVRPFEMKDIKLADYELNFKSESVLKEFLHEQTHAILEKIKNNFSHE,not soluble
9,SLTAISKMTRGLDYYEVMGLTRSANDIDIRRAYRRLALKYHPDINKDGAAGDEFLRICEAYEVLCDPKTKGFYDLYGEDALKDGISDGNGGLKGPMYRFNPEESPKAVFERFFGTANPYEALEALSNQFESMTSEEAPARGKNKVYPLELTLEEIFHGCLKKVAHKRKVLLFSGEYVEEERQLTVDVKPGLPTGTRFVFEGEGNKTPKKEPGPVVFVLKPKPHPRFVRRGSDLVHKVTLPLHHALIGTTLDIRTLDDRDLKVPISDIMRPGSSLTVPGEGMPLPATPSARGNLVIEIDLLFPTHLTETQKMLLRSAFFLPPPTEQNEETKKALRDYEAAFKHDLKGWATVFKRL,not soluble
10,SLTKPIGEKADPERLAAFLNEKGGNALSHLGFLGDKRFYFSSDGNALLLFGKIARRLVVLGDPSGQRESFPLVLEEFLNEAHQKGFSVLFYQIEREDMALYHDFGYNFFKLGEEAYVDLNTFTLTGKKKAGLRAINNRFEREEYTFHVDHPPFSDAFLEELKQISDEWLGSKKEKGFSLGFFDPSYLQKAPIAYMKNAEGEIVAFANVMPMYQEGEISVDLMRYRGDAPNGIMDALFIRMFLWAKEEGCTSFNMGMAPLANVGTAFTSFWSERFAAVIFNNVRYMYSFSGLRAFKEKYKPEWRGKYLAYRKNRSLSVTMFLVTRLIGKSKKDSV,soluble
11,SLTNITQCKNRRCGGELGDFTGYIESPNYPGNYPANTECTWTINPPPKRRILIVVPEIFLPIEDDCGDYLVMRKTSSSNSVTTYETCQTYERPIAFTSRSKKLWIQFKSNEGNSARGFQVPYVTYDEDYQELIEDIVRDGRLYASENHQEILKDKKLIKALFDVLAHPQNYFKYTAQESREMFPRSFIRLLRSKVSRFLRPYK,soluble
12,SLTRLEALKNIPRPAEECVEKTLNGEVPVDLFIARGHPNVRASNKRTLEVTKDVYLTRRGDCIIACCAEKAAGELSATVLEALMRSGLVVLIIDAGVVWDYVIGITPRSKPASKWRLVARKSNYVDDSTIAILADKAAYDLDRTLIRELKRGVPVRIIVGVCPGDSI,not soluble
13,SLVNPNQFKPLIVEQAKKQTGLDLVIEGDIGWQFFPSIGFELGKTELKNPQGFASPNLFKVESVGIDVSVMPLLDKQLKIGNIRLDGAEFHLETLKDGRSNLDALTQAQSKPASAPATTDSAPASQPSSSEPAAAWSIELGGVSVSNAVLEITDKKAGSHTKLYDVQLSVAEFVPDNWTKATFAAKGDKDQQKFAAQGEAEVRLSADFKQYALRNINLDASFSDPSNQIDSAKLKLDTFEFDKANALTFSVAGKAADMKLNAQGSASLMVNQAISKVGLDALKLQAELEGAALPQSPMKLSLDSQIAFDLTQNHLSVLLNKLTANALSFDGKADVTLADIPKVRFNLHSPEIDLDAFLGTKAQESQPAPAKEAAASSSSAPATNAPAEVEPDLSALKALDVAGEISIDKFKASNAHLQNVKANFAVNRGVVDLKSFTANLYQGSVQASAQVDARKTPATYSVKKQIKGVQVKPLLKDVLNNEMLEGTGNIDVNVQGQSLTPSGIQKNLVGTVAINFADGAVKGINVAHLIRTHYAKIKGQNVEEADAVKKTDFSAMTTTLKLNKGEVTTNDLNMQSPLLRIHGEGKANYLQQNVDFLVRTSIVGTLEGQGGKSLDELRDVTIPINISGAWSDPKFRLVFDDVLKQKAKKEVDRGVEKLTDKIKDEDTKKAVDGLLKGLFN,soluble
14,SLYANYKRVYENEALETLKVYTTFLRNALIEVNTLMVHSQHFYKSFMGNLKYILDSVAVNKLKSNYNKDMPVVVVSAGPSLEKNIRFLKDCQDKCIIITGGRTLKTLLDLDIKPDYVCVVDPDVPAYDVMRGTFDCTAPLLFCEYTYYEILRDYKGEKIFFNDIGMLGLQKEFLNYDVDNIFEGGSVAHVCAGLGVYIGGDPIIFIGQDLAYTNDKAHADSAGDTNVEGDKKIVYVEDINGDIIKSDSVLNFYRIKLEEMTQLFKENNFINSTEGGANIKGTKIIPLKEVLKKFCLNKKKDYTLGENIGKYVSREQVVCKLMDAKKIMNKVKKEIEASIDLCSEFLEKENRWNKTIIDNINRKLSKTDKLINSSIGEMEFMRNLILPNIYESSMNKEYKQKYNETEKEKIKRVYKKNILLYNGIKTSIMEAGPEIEKCIKSLKES,not soluble
15,SMAPKPGLDFSPFDFAHFGFPSDNSGKERSFQAKPSPKLGRHVYSRPKVDIQKICIGNKNIFTVSDLKPDTQYYFDVFVVNINSNMSTAYVGTFARTKEEAKQKTVELKDGKITDVFVKRKGAKFLRFAPVSSHQKVTFFIHSCLDAVQIQVRRDGKLLLSQNVEGIQQFQLRGKPKAKYLVRLKGNKKGASMLKILATTRPTKQSFPSLPEDTRIKAFDKLRTCSSATVAWLGTQERNKFCIYKKEVDDNYNEDQKKREQNQCLGPDIRKKSEKVLCKYFHSQNLQKAVTTETIKGLQPGKSYLLDVYVIGHGGHSVKYQSKVVKTRKFC,soluble
16,SMGGRRAVRVWCDGCYDMVHYGHSNQLRQARAMGDYLIVGVHTDEEIAKHKGPPVFTQEERYKMVQAIKWVDEVVPAAPYVTTLETLDKYNCDFCVHGNDITLTVDGRDTYEEVKQAGRYRECKRTQGVSTTDLVGRMLLVTKAHHSSQEMSSEYREYADSFGKCPGGRNPWTGVSQFLQTSQKIIQFASGKEPQPGETVIYVAGAFDLFHIGHVDFLEKVHRLAERPYIIAGLHFDQEVNHYKGKNYPIMNLHERTLSVLACRYVSEVVIGAPYAVTAELLSHFKVDLVCHGKTEIIPDRDGSDPYQEPKRRGIFRQIDSGSNLTTDLIVQRIITNRLEY,soluble
17,SMIPDFMSFTSHIDELYESAKKQSGGKVADYIPQLAKFSPDLWGVSVCTVDGQRHSTGDTKVPFCLQSCVKPLKYAIAVNDLGTEYVHRYVGKEPSGLRFNKLFLNEDDKPHNPMVNAGAIVVTSLIKQGVNNAEKFDYVMQFLNKMAGNEYVGFSNATFQSERESGDRNFAIGYYLKEKKCFPEGTDMVGILDFYFQLCSIEVTCESASVMAATLANGGFCPITGERVLSPEAVRNTLSLMHSCGMYDFSGQFAFHVGLPAKSGVAGGILLVVPNVMGMMCWSPPLDKMGNSVKGIHFCHDLVSLCNFHNYDNL,soluble
18,SMLSRAKPAVGGESPHTDKRKKKGRKIPKLEDLLSQRDFTGAITLLEFKRHVGEQEDDTNLWIGYCAFHLGDYKRALEEYENATKEENCNPEVWVNLACTYFFLGMYKQAEAAGFKAPKSRLQNRLLFHLAHKFNDEKKLMNFHQNLQDIKEDQLSLASNSEIHLPLPPECWD,soluble
